From US20220356245A1 (FORTY SEVEN, published 2022)
Like-named read-outs stand apart in the source and are kept apart here. Values belong to the binder of their own block, whether it stands above or below them.

Legend:
[1] = molecular target: T1, human CD47 (hCD47) expressed on cells (human, UniProt Q08722 19-323); assay: flow cytometry, Raji cells
T1 construct: Transfected CHO cells or endogenous CD47 of human cells; also called CHO-hCD47; CD47 on Raji cells
Description: (§1) Raji cells (ATCC-CLL-86; 2×10⁵ cells/well of 96-well plate) were first incubated at +4° C. for 30 minutes with serial dilutions of anti-CD47 antibodies or control isotype antibody (in mIgG2a or mIgG1 format). The cells were then washed and incubated for 30 minutes at +4° C. with a PE-conjugated F(ab)′2 goat anti-mouse IgG antibody ( 1/100 dilution, Beckman Coulter). After washings, the fluorescence of the cells was analyzed by flow cytometry on an Accuri-C6 flow cytometer (BD Biosciences).
(§2) The delta of MFI, representing the difference between the intensity measured with the tested antibody and the intensity in the absence of antibody, was calculated for each antibody concentration and the values were plotted against the antibody concentrations. The EC50 values were then calculated by using a nonlinear regression analysis model of the GraphPad Prism software.

[2] = molecular target: T1, human CD47 (hCD47) expressed on cells; assay: cell-based or functional assay
[3] = molecular target: T2, hu-sCD47-6His; extracellular domain of human CD47 antigen with 6His-tag (human); assay: SPR Biacore T200, antibody captured, hCD47-his analyte; exponent printed without minus sign, read as 10^-8;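 for koff: antibodies captured on anti-IgG (Fc) CM5 chip, five sequential 10 min antigen injections at rising concentrations, reference flow cell and antigen-free cycle as controls, 1:1 model fit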;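 for kon: antibodies captured on anti-IgG (Fc) CM5 chip, five sequential 10 min antigen injections at rising concentrations, reference flow cell and antigen-free cycle as controls, 1:1 model fit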
T2 construct: also called hCD47-his; soluble hCD47
Excerpt: (§3) An anti-human or anti-mouse IgG (Fc) was first immobilized on the surface of Serie S Sensor Chips CM5 using the human or mouse antibody capture and amine coupling kits, following the manufacturer's instructions (GE Healthcare). […] The mouse, chimerized or humanized antibodies to be tested were then captured onto the appropriate anti-mouse or anti-human IgG surface in all flow cells except flow cell 1 used as control, at concentration and contact time adjusted so that ˜300 RU were captured on the surface. Binding kinetics were studied by passing increasing concentrations of hCD47-his in a series of five 10 minute injections through all flow cells at a rate of 30 μL/min. […] Following the final injection, buffer was passed across each flow cell for 60 minutes (mouse) or 30 minutes (human) to monitor the dissociation of bound antigen. Regeneration of the binding surface was carried out at the end of the cycle by flowing 3 M MgCl₂ for 60 s at 20 μL/min followed by 10 mM glycine-HCl, pH 1.7 for 180 s at 10 μl/min (for human) or by flowing 10 mM glycine-HCl, ph 1.7 for 360 s at 10 μl/min (for mouse). A second cycle with the same antibodies but no antigen was run as a control. Kinetics binding constants were estimated by non-linear fitting of the sensogram data to the 1:1 binding model provided by the Biacore T200 evaluation software.

[4] = molecular target: T3, mouse CD47 (mCD47) expressed on CHO cells (mouse, UniProt Q61735 19-303); assay: flow cytometry, CHO-mCD47 cells
T3 construct: whole, on cells; also called CHO-mCD47
T3 sequence (looked up): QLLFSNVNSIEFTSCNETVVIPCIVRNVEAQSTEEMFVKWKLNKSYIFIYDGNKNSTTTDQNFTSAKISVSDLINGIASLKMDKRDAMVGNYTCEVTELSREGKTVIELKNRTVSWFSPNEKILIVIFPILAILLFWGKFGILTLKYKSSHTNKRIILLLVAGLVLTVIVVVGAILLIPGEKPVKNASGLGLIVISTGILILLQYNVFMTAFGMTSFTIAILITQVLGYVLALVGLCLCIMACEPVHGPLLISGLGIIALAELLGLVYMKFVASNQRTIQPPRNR

[5] = molecular target: T1, human CD47 (hCD47) expressed on cells; assay: flow cytometry, hCD47-CHO cells, competition with His-hSIRPα
Description: Human CD47-transfected cells (3×10⁵ cells/well of 96-well plate) were first incubated at +4° C. for 30 minutes with serial dilutions of anti-CD47 antibodies or isotype control antibody (in mIgG2a or mIgG1 format). […] The percentage inhibition was plotted against antibody concentration and the IC50 values were calculated using a nonlinear regression analysis model of the GraphPad Prism software.

[6] = molecular target: T2, hu-sCD47-6His; extracellular domain of …; assay: SPR Biacore T200, antibody captured, hCD47-his analyte
Excerpt: as §3

[7] = molecular target: T1, human CD47 (hCD47) expressed on cells; assay: flow cytometry, Raji cells; lower end tied to candidate 15 by Table 6
Description: as §1, §2

[8] = molecular target: T1, human CD47 (hCD47) expressed on cells; assay: flow cytometry, CD47-transfected CHO cells
[9] = molecular target: T1, human CD47 (hCD47) expressed on cells; assay: flow cytometry, Raji cells; upper end tied to candidate 19 by Table 6
Description: as §1, §2

[10] = molecular target: T1, human CD47 (hCD47) expressed on cells; assay: flow cytometry, Raji cells, competition with His-hSIRPα; upper end tied to candidate 19 by Table 7
Description: (§4) The percent inhibition was plotted against antibody concentration and the IC50 values were calculated by using a nonlinear regression analysis model of the GraphPad Prism software.

[11] = molecular target: T1, human CD47 (hCD47) expressed on cells; assay: flow cytometry, Raji cells, competition with His-hSIRPα
Description: as §4

[12] = molecular target: T3, mouse CD47 (mCD47) expressed on CHO …; assay: flow cytometry, CHO-mCD47 cells; remark: listed apart in the source
[13] = molecular target: T1, human CD47 (hCD47) expressed on cells; assay: flow cytometry on Raji cells, hIgG4 format, delta MFI
[14] = molecular target: T1, human CD47 (hCD47) expressed on cells; assay: flow cytometry on Raji cells, hIgG4 format: inhibition of hSIRPα binding to hCD47
[15] = molecular target: T1, human CD47 (hCD47) expressed on cells; assay: as above; remark: listed apart in the source
[16] = molecular target: T1, human CD47 (hCD47) expressed on cells; assay: flow cytometry on Raji cells, hIgG4 format, delta MFI; remark: listed apart in the source
[17] = molecular target: T2, hu-sCD47-6His; extracellular domain of …; assay: SPR Biacore; head read as x 10^-4
Excerpt: as §3

[18] = molecular target: T1, human CD47 (hCD47) expressed on cells; assay: flow cytometry on Raji cells, hIgG4 format: inhibition of hSIRPα binding to hCD47; remark: listed apart in the source
[19] = molecular target: T1, human CD47 (hCD47) expressed on cells; assay: as above; remark: listed apart in the source
[20] = molecular target: T1, human CD47 (hCD47) expressed on cells; assay: flow cytometry, Raji cells; remark: listed apart in the source
[21] = molecular target: T2, hu-sCD47-6His; extracellular domain of …; assay: ELISA, one-site binding saturation fit, glycosylated hCD47
Description: (§5) The Bmax values were calculated by using the binding saturation/one-site binding model of the GraphPad Prism software (mean +/− SD of triplicates).

[22] = molecular target: T4, N-deglycosylated soluble hCD47-His (PNGase treated) (human, N-glycans removed with PNGase); assay: ELISA, one-site binding saturation fit, deglycosylated hCD47
T4 construct: also called deglycosylated-hCD47; N-Deglycosylated hCD47-His
Description: (§6) The equilibrium binding constant values were calculated by using the binding saturation/one-site binding model of the GraphPad Prism software (mean +/− SD of triplicates).

[23] = molecular target: T2, hu-sCD47-6His; extracellular domain of …; assay: SPR Biacore
Excerpt: as §3

[24] = molecular target: T2, hu-sCD47-6His; extracellular domain of …; assay: SPR Biacore; remark: listed apart in the source
Excerpt: as §3

[25] = molecular target: T1, human CD47 (hCD47) expressed on cells; assay: flow cytometry on Raji cells, hIgG4 format, delta MFI; remark: listed apart in the source
[26] = molecular target: T2, hu-sCD47-6His; extracellular domain of …; assay: ELISA, one-site binding saturation fit, glycosylated hCD47; remark: listed apart in the source
Description: as §6

[27] = molecular target: T1, human CD47 (hCD47) expressed on cells; assay: flow cytometry on Raji cells, hIgG4 format: inhibition of hSIRPα binding to hCD47; remark: listed apart in the source
[28] = molecular target: T4, N-deglycosylated soluble hCD47-His …; assay: ELISA; against glycosylated hCD47-His
Description: (§7) The EC50 and EC95 values were calculated by using the non-linear regression/log (antibody) versus response (four parameters) model of the GraphPad Prism software.

[29] = molecular target: T1, human CD47 (hCD47) expressed on cells; assay: flow cytometry on Raji cells, hIgG4 format, delta MFI; remark: listed apart in the source
[30] = molecular target: T1, human CD47 (hCD47) expressed on cells; assay: flow cytometry, Raji cells, competition with hSIRPα
[31] = molecular target: T4, N-deglycosylated soluble hCD47-His …; assay: ELISA, coated N-deglycosylated hCD47-His
[32] = molecular target: T1, human CD47 (hCD47) expressed on cells; assay: flow cytometry, Raji cells, competition with hSIRPα; remark: listed apart in the source
[33] = molecular target: T2, hu-sCD47-6His; extracellular domain of …; assay: ELISA, coated glycosylated hCD47-His
Description: as §7

[34] = molecular target: T4, N-deglycosylated soluble hCD47-His …; assay: ELISA, one-site binding saturation fit, deglycosylated hCD47; remark: listed apart in the source
Description: as §5

[35] = molecular target: T1, human CD47 (hCD47) expressed on cells; assay: flow cytometry on Raji cells, hIgG4 format, delta MFI; remark: listed apart in the source
[36] = molecular target: T1, human CD47 (hCD47) expressed on cells; assay: flow cytometry, Raji cells; remark: listed apart in the source

EC50 [1]: 0.136 µg/mL
Phagocytic index, Raji cells and human macrophages, antibody at 0.125 µg/mL [2]: 106 Raji cells ingested per 100 macrophages
Kd [3]: 15.7 nM
IC50 [5]: 0.482 µg/mL
koff [6]: 0.000325 s⁻¹
kon [6]: 20700 M⁻¹ s⁻¹
B1: Candidate 22 (VL008-AL13-8G5-8K3), mouse IgG (antibody, V domains shown)
VH: QVQLQQPGAELVKPGASVKLSCKASGYTFTTYWMHWVKQRPGQGLEWIGMIHPNSGTTNYNEKFKSKATLTVDKSSSSTYMQLSSLTSEDSAVYYCTRSHYYDGHFSYWGQGTLVTVSA
VL: DIVMSQSPSSLAVSAGEKVTMSCKSSQSLLNSRTRKNYLAWYQQKPGQSPKLLIYWASTRESGVPDRFTGSGSGTDFTLTISSVQAEDLAVYYCKQSYNLWTFGGGTRLEIK
notes: Recombinant mouse IgG2a or mIgG1 format, by assay; also called antibody 22
binding result [4]: no binding (tested: 7.3 µg/mL highest concentration)

EC50 [1]: 0.031 µg/mL
Phagocytic index, Raji cells and human macrophages, antibody at 0.125 µg/mL [2]: 74.4 Raji cells ingested per 100 macrophages
EC50 [7]: 0.2 nM
IC50 [5]: 0.605 µg/mL
Kd [6]: 4.24 nM
koff [6]: 0.00239 s⁻¹
kon [6]: 565000 M⁻¹ s⁻¹
B2: Candidate 15 (VT008-AL6-18G1-18K21), mouse IgG (antibody, V domains shown)
VH: QVQLQQPGAELVKPGTSVKLSCKASGYTFINYWIHWVKQRPGRGLEWIGRIDPNTVDAKYNEKFKSKATLTVDKPSSIAYMQLSSLTSEDSAVYYCSRGGYTMDYWGQGTSVTVSS
VL: DVVMTQTPLSLPVSLGDQASISCRSSQSLVHSNGNTYLHWYLQKPGQSPTLLIYKVSNRFSGVPDRFSGSGSGTDFTLKISRVEAEDLGIYFCFQSTHVPWTFGGGTKLEIK
notes: Recombinant mouse IgG2a or mIgG1 format, by assay

binding result [8]: binds
B3: Candidate 29 (VT008-AL6-20G7-20K7), mouse IgG (antibody, V domains shown)
VH: QVQLQQSGTELAKPGASVKLSCKASGYTFINYWIYWVKERPGQVLEWIGYINPRSDDTKYNQKFRDRATLTADKSSTTAYLQLNSLTNDDSALYYCARGGFTMDFWGQGTSVTVSS
VL: DVVMTQTPLSLPVSLGDQASISCRSSQSLLHSNGNTYLHWYLQKPGQSPNLLIYKVSYRFSGVPDRFSGSGSGTDFTLKISRVEAEDLGVYFCSQGTHVPYTFGGGTKLEIK

EC50 [1]: 0.165 µg/mL
Phagocytic index, Raji cells and human macrophages, antibody at 0.125 µg/mL [2]: 73.9 Raji cells ingested per 100 macrophages
EC50 [9]: 1.1 nM
IC50 [5]: 0.858 µg/mL
Kd [6]: 2.25 nM
koff [6]: 0.000176 s⁻¹
kon [6]: 79000 M⁻¹ s⁻¹
B4: Candidate 19 (VL008-AL17-7G1-7K6), mouse IgG (antibody, V domains shown)
VH: QVQLQQSGPELVKPGASVKISCKASVYTFTDYYINWVKQRPGQGLEWVGWIFPGSGLTYYNKKFKGKATLTVDKSSSTAYMLLSSLTSEDSAVYFCARPYYGSRWDYAMDYWGQGTSVTVSS
VL: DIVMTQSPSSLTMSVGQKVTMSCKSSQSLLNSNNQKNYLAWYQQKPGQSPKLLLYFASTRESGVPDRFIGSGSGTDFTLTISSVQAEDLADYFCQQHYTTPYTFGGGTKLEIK
notes: as for B2
binding result [4]: no binding (tested: 7.3 µg/mL highest concentration)

IC50 [10]: 2.46 nM
IC50 [11]: 0.369 µg/mL
B5: Candidate 19, chimeric hIgG format (hIgG1 or hIgG4) (antibody, V domains shown)
VH: QVQLQQSGPELVKPGASVKISCKASVYTFTDYYINWVKQRPGQGLEWVGWIFPGSGLTYYNKKFKGKATLTVDKSSSTAYMLLSSLTSEDSAVYFCARPYYGSRWDYAMDYWGQGTSVTVSS
VL: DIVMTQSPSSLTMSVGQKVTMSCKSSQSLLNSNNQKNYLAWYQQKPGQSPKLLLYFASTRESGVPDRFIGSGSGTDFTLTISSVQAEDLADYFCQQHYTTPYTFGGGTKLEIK
notes: also called Candidate 19 (hIgG format)

EC50 [1]: 0.096 µg/mL
Phagocytic index, Raji cells and human macrophages, antibody at 0.125 µg/mL [2]: 119 Raji cells ingested per 100 macrophages
IC50 [5]: 0.44 µg/mL
Kd [6]: 4.16 nM
koff [6]: 0.000418 s⁻¹
kon [6]: 101000 M⁻¹ s⁻¹
B6: Candidate 20 (VL008-AL18-14G4-14K1), mouse IgG (antibody, V domains shown)
VH: QVQLKQSGAELVRPGASVKLSCKASGYSFTDYYINWVKQRPGQGLEWIARIYPGIGNTYYNKKFKGKATLTAEKSSSTAYMQLNSLTSEDSAVYFCARGHYGRGMDYWGQGTSVTVSS
VL: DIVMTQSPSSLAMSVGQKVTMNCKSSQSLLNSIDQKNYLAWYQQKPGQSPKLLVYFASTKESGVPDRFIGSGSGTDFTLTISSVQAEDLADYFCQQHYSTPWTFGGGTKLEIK
notes: Recombinant mouse IgG2a or mIgG1 format, by assay; also called antibody 20
binding result [12]: no binding (tested: 7.3 µg/mL highest concentration)

EC50 (read off the curve) [13]: ~0.1 µg/mL
IC50 (read off the curve) [14]: ~0.2 µg/mL
IC50 (read off the curve) [15]: ~0.2 µg/mL
binding result [12]: no binding
EC50 (read off the curve) [16]: ~0.1 µg/mL
koff [17]: 0.000505 s⁻¹
IC50 (read off the curve) [18]: ~0.2 µg/mL
IC50 (read off the curve) [19]: ~0.2 µg/mL
EC50 [20]: 0.15 µg/mL
Bmax [21]: 2.9 OD value
equilibrium binding constant [22]: 38.8 pM
Kd [23]: 2.48 nM
koff [23]: 0.000543 s⁻¹
kon [23]: 225000 M⁻¹ s⁻¹
Kd [24]: 3.22 nM
kon [24]: 169000 M⁻¹ s⁻¹
EC50 (read off the curve) [25]: ~0.1 µg/mL
equilibrium binding constant [26]: 27.3 pM
IC50 (read off the curve) [27]: ~0.2 µg/mL
EC50 ratio Deglycosylated/Glycosylated [28]: 1.7 ratio
EC95 ratio Deglycosylated/Glycosylated [28]: 5 ratio
EC50 (read off the curve) [29]: ~0.1 µg/mL
IC50 [30]: 0.11 µg/mL
EC50 [31]: 0.0474 nM
EC95 [31]: 3.33 nM
IC50 [32]: 0.138 µg/mL
EC50 [33]: 0.028 nM
EC95 [33]: 0.667 nM
Bmax2 [34]: 2.2 OD value
EC50 (read off the curve) [35]: ~0.1 µg/mL
EC50 [36]: 0.0751 µg/mL
B7: hIgG4 chimeric candidate 20 (mouse VH0/VL0, human Fcγ4-S228P and human Kappa backbone) (antibody, V domains shown)
VH: QVQLKQSGAELVRPGASVKLSCKASGYSFTDYYINWVKQRPGQGLEWIARIYPGIGNTYYNKKFKGKATLTAEKSSSTAYMQLNSLTSEDSAVYFCARGHYGRGMDYWGQGTSVTVSS
VL: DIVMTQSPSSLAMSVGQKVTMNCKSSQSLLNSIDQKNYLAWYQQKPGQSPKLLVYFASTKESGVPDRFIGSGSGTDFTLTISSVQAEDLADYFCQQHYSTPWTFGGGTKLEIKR
notes: hIgG4-S228P/kappa; also called Chim; 20; Chim 20
